Reference: patent US10800847

Columns and labels:
[1] = target: HLA-B*4701 (B47) single antigen on Luminex beads (human); test: Luminex single antigen, iBeads (#6), IVIg 1:4
[2] = target: HLA-B*4101 (B41) single antigen on Luminex beads (human); test: Luminex single antigen, iBeads (#6), IVIg 1:4
[3] = target: HLA-B*4001 (B60) single antigen on Luminex beads (human); test: Luminex single antigen, iBeads (#6), IVIg 1:4
[4] = target: HLA-B*4402 (B44) single antigen on Luminex beads (human); test: Luminex single antigen, iBeads (#6), IVIg 1:4
[5] = target: HLA-B*3501 (B35) single antigen on Luminex beads (human); test: Luminex single antigen, iBeads (#6), IVIg 1:4
[6] = target: HLA-B*2705 (B27) single antigen on Luminex beads (human); test: Luminex single antigen, iBeads (#6), IVIg 1:4
[7] = target: HLA-B*3801 (B38) single antigen on Luminex beads (human); test: Luminex single antigen, iBeads (#6), IVIg 1:4
[8] = target: HLA-B*4601 (B46) single antigen on Luminex beads (human); test: Luminex single antigen, iBeads (#6), IVIg 1:4
[9] = target: HLA-B*4006 (B61) single antigen on Luminex beads (human); test: Luminex single antigen, iBeads (#6), IVIg 1:4
[10] = target: HLA-B*2708 (B27) single antigen on Luminex beads (human); test: Luminex single antigen, iBeads (#6), IVIg 1:4
[11] = target: HLA-B*3701 (B37) single antigen on Luminex beads (human); test: Luminex single antigen, iBeads (#6), IVIg 1:4
[12] = target: HLA-B*4501 (B45) single antigen on Luminex beads (human); test: Luminex single antigen, iBeads (#6), IVIg 1:4
[13] = target: HLA-B*4403 (B44) single antigen on Luminex beads (human); test: Luminex single antigen, iBeads (#6), IVIg 1:4
[14] = target: HLA-B*3901 (B39) single antigen on Luminex beads (human); test: Luminex single antigen, iBeads (#6), IVIg 1:4
[15] = target: HLA-B*4201 (B42) single antigen on Luminex beads (human); test: Luminex single antigen, iBeads (#6), IVIg 1:4
[16] = target: HLA-B*4002 (B61) single antigen on Luminex beads (human); test: Luminex single antigen, iBeads (#6), IVIg 1:4
[17] = target: Albumin on negative control beads (serum albumin, HSA/BSA) (human or bovine); test: Luminex, iBead MFI against regular bead MFI, 1:4
[18] = target: HLA-A*0301 (A3) on single antigen beads (human) (UniProt P04439); test: Luminex single antigen beads, regular beads (#7), 1:4
[19] = target: Albumin on negative control beads (serum albumin, HSA/BSA) (human or bovine); test: as above
[20] = target: HLA-B*4701 (B47) single antigen on Luminex beads (human); test: Luminex single antigen, iBead vs regular bead, IVIg 1:4
[21] = target: HLA-B*4101 (B41) single antigen on Luminex beads (human); test: as above
[22] = target: HLA-B*4001 (B60) single antigen on Luminex beads (human); test: as above
[23] = target: HLA-B*4402 (B44) single antigen on Luminex beads (human); test: as above
[24] = target: HLA-B*3501 (B35) single antigen on Luminex beads (human); test: as above
[25] = target: HLA-B*2705 (B27) single antigen on Luminex beads (human); test: as above
[26] = target: HLA-B*3801 (B38) single antigen on Luminex beads (human); test: as above
[27] = target: HLA-B*4601 (B46) single antigen on Luminex beads (human); test: as above
[28] = target: HLA-B*4006 (B61) single antigen on Luminex beads (human); test: as above
[29] = target: HLA-B*2708 (B27) single antigen on Luminex beads (human); test: as above
[30] = target: HLA-B*3701 (B37) single antigen on Luminex beads (human); test: as above
[31] = target: HLA-B*4403 (B44) single antigen on Luminex beads (human); test: as above
[32] = target: HLA-B*3901 (B39) single antigen on Luminex beads (human); test: as above
[33] = target: HLA-B*4002 (B61) single antigen on Luminex beads (human); test: as above
[34] = target: HLA-B*4701 (B47) single antigen on Luminex beads (human); test: Luminex single antigen, regular beads (#7), IVIg 1:4
[35] = target: HLA-B*4101 (B41) single antigen on Luminex beads (human); test: as above
[36] = target: HLA-B*4001 (B60) single antigen on Luminex beads (human); test: as above
[37] = target: HLA-B*4402 (B44) single antigen on Luminex beads (human); test: as above
[38] = target: HLA-B*3501 (B35) single antigen on Luminex beads (human); test: as above
[39] = target: HLA-B*3801 (B38) single antigen on Luminex beads (human); test: as above
[40] = target: HLA-B*4601 (B46) single antigen on Luminex beads (human); test: as above
[41] = target: HLA-B*4006 (B61) single antigen on Luminex beads (human); test: as above
[42] = target: HLA-B*2708 (B27) single antigen on Luminex beads (human); test: as above
[43] = target: HLA-B*3701 (B37) single antigen on Luminex beads (human); test: as above
[44] = target: HLA-B*4501 (B45) single antigen on Luminex beads (human); test: as above
[45] = target: HLA-B*4403 (B44) single antigen on Luminex beads (human); test: as above
[46] = target: HLA-B*3901 (B39) single antigen on Luminex beads (human); test: as above
[47] = target: HLA-B*4201 (B42) single antigen on Luminex beads (human); test: as above

Q: How did the MFI [1] turn out when “Sandoglobulin (IVIg, Novartis, Basel, Switzerland) (antibody)” was run?
A: 655 MFI

Q: What about the MFI [2] of the same substance?
A: 182 MFI

Q: And the MFI [3]?
A: 409 MFI

Q: What about the MFI [4] of the same substance?
A: 461 MFI

Q: What about the MFI [5] of the same substance?
A: 352 MFI

Q: And the MFI [6]?
A: 377 MFI

Q: And the MFI [7]?
A: 248 MFI

Q: And the MFI [8]?
A: 473 MFI

Q: What about the MFI [9] of the same substance?
A: 359 MFI

Q: And the MFI [10]?
A: 302 MFI

Q: And the MFI [11]?
A: 740 MFI

Q: And the MFI [12]?
A: 612 MFI

Q: And the MFI [13]?
A: 413 MFI

Q: And the MFI [14]?
A: 0 MFI

Q: And the MFI [15]?
A: 86 MFI

Q: What about the MFI [16] of the same substance?
A: 242 MFI

Q: What about the Difference % (iBead against regular bead) [17] of the same substance?
A: -44%

Q: And the MFI [18]?
A: 2 MFI

Q: And the MFI [19]?
A: 1200 MFI

Q: And the Difference % (iBead against regular bead MFI) [20]?
A: 85%

Q: What about the Difference % (iBead against regular bead MFI) [21] of the same substance?
A: 469%

Q: What about the Difference % (iBead against regular bead MFI) [22] of the same substance?
A: 73%

Q: And the Difference % (iBead against regular bead MFI) [23]?
A: -33%

Q: What about the Difference % (iBead against regular bead MFI) [24] of the same substance?
A: 45%

Q: And the Difference % (iBead against regular bead MFI) [25]?
A: 167%

Q: And the Difference % (iBead against regular bead MFI) [26]?
A: -2%

Q: What about the Difference % (iBead against regular bead MFI) [27] of the same substance?
A: -12%

Q: What about the Difference % (iBead against regular bead MFI) [28] of the same substance?
A: -53%

Q: And the Difference % (iBead against regular bead MFI) [29]?
A: 2220%

Q: And the Difference % (iBead against regular bead MFI) [30]?
A: -33%

Q: And the Difference % (iBead against regular bead MFI) [31]?
A: 45%

Q: And the Difference % (iBead against regular bead MFI) [32]?
A: 0%

Q: What about the Difference % (iBead against regular bead MFI) [33] of the same substance?
A: 81%

Q: And the MFI [34]?
A: 355 MFI

Q: What about the MFI [35] of the same substance?
A: 32 MFI

Q: And the MFI [36]?
A: 237 MFI

Q: What about the MFI [37] of the same substance?
A: 683 MFI

Q: And the MFI [38]?
A: 243 MFI

Q: What about the MFI [39] of the same substance?
A: 254 MFI

Q: And the MFI [40]?
A: 537 MFI

Q: And the MFI [41]?
A: 765 MFI

Q: And the MFI [42]?
A: 13 MFI

Q: And the MFI [43]?
A: 1100 MFI

Q: And the MFI [44]?
A: 272 MFI

Q: What about the MFI [45] of the same substance?
A: 284 MFI

Q: And the MFI [46]?
A: 0 MFI

Q: What about the MFI [47] of the same substance?
A: 0 MFI
